One molecule from US20210388041A1 (NEXEL, published 2021) can be followed below.

Test [1] addresses T1, integrin β3 (integrin αvβ3) (human, UniProt P05106 27-788; P06756 31-1048).
T1 construct: whole, on cells; The assays detect the β3 chain with an antibody; The legend speaks of integrin αvβ3 on HSCs; also called Integrin B3; integrin β3/β5
Put plainly: proximity ligation assay in human HSCs. On the procedure: (§1) For the PLA incorporation assay, human HSCs were seeded at 2×10⁴ cells per well on the 18 mm circular cover glass in 12-well plates and cultured for 24 hours. After serum starvation for 24 hours, the cells were treated with 10 ng/ml of TGF-β1 and/or 500 ng/ml of NP-011, and then, further incubated for 30 minutes. The PLA incorporation was accessed using the Duolink In Situ Red Starter Kit (Merck) according to the manufacturer's instructions. Digital images of PLA-positive cells were captured using a microscope (Nikon) and analyzed using ImageJ software <https://imagej.nih.gov/iy>.
(§2) It was investigated herein the mechanism of action for NP-011's rapid and effective suppression TGF-β signaling observed in diseased liver (FIGS. 1E and 2F). One day after administration of NP-011 in TAA-induced fibrotic liver, NP-011 preferentially bound to α-SMA-positive HSCs, and some of NP-011 interacted with macrophages in the liver (FIG. 6). Integrin αvβ3 and αvβ5 on the surface of HSCs have been previously implicated in regulating fibrosis. Additionally, the crosstalk between integrin and TGF-β signaling may be important in the regulation of pathological epithelial to mesenchymal transition (EMT) and myofibroblast differentiation. […] As a consequences of NP-011 treatment in TGF-β1-treated HSCs, the proliferative HSCs returned to quiescent status (FIG. 7D). […]

The target of test [2] is T2, integrin β5 (integrin αvβ5) (human, UniProt P18084 24-799; P06756 31-1048).
T2 construct: whole, on cells; The assays detect the β5 chain with an antibody; The legend speaks of integrin αvβ5 on HSCs; also called Integrin B5; integrin β3/β5
T2 sequence (P18084 24-799, chain 1 of 2): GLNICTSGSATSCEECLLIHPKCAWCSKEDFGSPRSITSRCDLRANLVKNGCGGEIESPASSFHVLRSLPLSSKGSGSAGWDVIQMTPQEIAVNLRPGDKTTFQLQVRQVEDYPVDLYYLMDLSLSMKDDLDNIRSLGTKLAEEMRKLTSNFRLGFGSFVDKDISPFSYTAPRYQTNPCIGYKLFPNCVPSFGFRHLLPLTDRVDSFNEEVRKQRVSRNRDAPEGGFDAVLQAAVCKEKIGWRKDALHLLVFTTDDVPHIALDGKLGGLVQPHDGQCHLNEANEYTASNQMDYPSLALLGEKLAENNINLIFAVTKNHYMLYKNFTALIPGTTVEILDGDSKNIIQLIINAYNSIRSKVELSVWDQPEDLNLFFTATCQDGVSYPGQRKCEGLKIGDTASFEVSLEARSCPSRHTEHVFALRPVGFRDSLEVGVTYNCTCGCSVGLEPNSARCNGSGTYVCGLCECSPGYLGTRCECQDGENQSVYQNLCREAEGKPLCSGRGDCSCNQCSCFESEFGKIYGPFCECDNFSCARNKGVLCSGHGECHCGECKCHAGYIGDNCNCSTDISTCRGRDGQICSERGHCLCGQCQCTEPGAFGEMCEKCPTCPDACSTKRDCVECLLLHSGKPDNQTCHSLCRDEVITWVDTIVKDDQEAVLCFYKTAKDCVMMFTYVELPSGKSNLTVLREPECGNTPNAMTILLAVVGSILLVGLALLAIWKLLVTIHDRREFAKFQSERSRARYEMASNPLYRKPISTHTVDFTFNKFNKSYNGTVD
T2 sequence (P06756 31-1048, chain 2 of 2): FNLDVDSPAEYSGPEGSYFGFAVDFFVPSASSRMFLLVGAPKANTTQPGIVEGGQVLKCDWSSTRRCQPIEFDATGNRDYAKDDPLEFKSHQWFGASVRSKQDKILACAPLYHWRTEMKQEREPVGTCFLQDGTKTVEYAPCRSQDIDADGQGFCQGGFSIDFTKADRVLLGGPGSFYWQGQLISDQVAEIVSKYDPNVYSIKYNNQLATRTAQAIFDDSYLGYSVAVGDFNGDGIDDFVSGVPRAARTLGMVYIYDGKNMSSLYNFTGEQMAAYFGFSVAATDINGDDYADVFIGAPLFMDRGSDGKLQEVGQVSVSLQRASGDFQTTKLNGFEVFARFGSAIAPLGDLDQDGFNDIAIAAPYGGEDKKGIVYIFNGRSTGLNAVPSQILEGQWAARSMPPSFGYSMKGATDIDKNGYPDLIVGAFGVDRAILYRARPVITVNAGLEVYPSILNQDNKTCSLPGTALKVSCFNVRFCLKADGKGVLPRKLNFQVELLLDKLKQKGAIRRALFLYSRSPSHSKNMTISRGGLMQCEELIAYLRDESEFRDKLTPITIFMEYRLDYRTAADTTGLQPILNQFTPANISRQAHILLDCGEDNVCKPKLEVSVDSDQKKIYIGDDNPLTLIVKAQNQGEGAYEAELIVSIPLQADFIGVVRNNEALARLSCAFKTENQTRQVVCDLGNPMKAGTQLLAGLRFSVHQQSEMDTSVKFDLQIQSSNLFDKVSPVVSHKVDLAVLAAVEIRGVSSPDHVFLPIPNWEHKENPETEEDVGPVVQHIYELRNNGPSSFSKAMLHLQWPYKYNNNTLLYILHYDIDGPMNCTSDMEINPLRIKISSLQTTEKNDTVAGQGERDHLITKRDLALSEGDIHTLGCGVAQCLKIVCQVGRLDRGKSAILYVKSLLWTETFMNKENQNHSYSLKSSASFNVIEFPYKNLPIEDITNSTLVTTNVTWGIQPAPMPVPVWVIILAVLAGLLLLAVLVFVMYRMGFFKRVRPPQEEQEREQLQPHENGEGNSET
Kind of test: proximity ligation assay in human HSCs. On the procedure: as §1, §2

T1 sequence (P05106 27-788, chain 1 of 2): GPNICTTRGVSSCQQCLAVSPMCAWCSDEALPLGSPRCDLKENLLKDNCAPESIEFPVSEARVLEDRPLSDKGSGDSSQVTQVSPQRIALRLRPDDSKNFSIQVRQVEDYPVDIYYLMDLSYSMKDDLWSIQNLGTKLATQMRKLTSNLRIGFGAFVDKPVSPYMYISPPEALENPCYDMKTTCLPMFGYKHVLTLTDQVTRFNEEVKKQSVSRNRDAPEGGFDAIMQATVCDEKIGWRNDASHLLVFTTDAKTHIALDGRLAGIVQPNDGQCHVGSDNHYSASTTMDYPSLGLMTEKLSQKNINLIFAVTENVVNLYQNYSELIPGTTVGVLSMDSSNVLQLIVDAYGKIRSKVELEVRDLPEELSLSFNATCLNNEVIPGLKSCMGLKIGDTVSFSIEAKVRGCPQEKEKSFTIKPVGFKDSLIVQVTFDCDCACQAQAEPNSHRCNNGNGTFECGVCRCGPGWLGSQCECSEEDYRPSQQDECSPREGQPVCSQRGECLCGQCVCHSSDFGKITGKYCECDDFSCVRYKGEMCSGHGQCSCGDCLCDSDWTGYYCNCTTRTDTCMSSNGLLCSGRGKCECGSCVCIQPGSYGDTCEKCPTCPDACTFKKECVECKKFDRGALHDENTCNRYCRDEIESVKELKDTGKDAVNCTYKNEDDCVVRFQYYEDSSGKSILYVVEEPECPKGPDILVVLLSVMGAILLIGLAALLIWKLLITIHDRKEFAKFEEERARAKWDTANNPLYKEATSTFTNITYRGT
T1 sequence (P06756 31-1048, chain 2 of 2): as the sequence (P06756 31-1048, chain 2 of 2) above

B1: TGF-β receptor 1 (TGFBRI) (receptor, human, UniProt P36897 34-503, looked up)
chain: LQCFCHLCTKDNFTCVTDGLCFVSVTETTDKVIHNSMCIAEIDLIPRDRPFVCAPSSKTGSVTTTYCCNQDHCNKIELPTTVKSSPGLGPVELAAVIAGPVCFVCISLMLMVYICHNRTVIHHRVPNEEDPSLDRPFISEGTTLKDLIYDMTTSGSGSGLPLLVQRTIARTIVLQESIGKGRFGEVWRGKWRGEEVAVKIFSSREERSWFREAEIYQTVMLRHENILGFIAADNKDNGTWTQLWLVSDYHEHGSLFDYLNRYTVTVEGMIKLALSTASGLAHLHMEIVGTQGKPAIAHRDLKSKNILVKKNGTCCIADLGLAVRHDSATDTIDIAPNHRVGTKRYMAPEVLDDSINMKHFESFKRADIYAMGLVFWEIARRCSIGGIHEDYQLPYYDLVPSDPSVEEMRKVVCEQKLRPNIPNRWQSCEALRVMAKIMRECWYANGAARLTALRIKKTLSQLSQQEGIKM
notes: whole, on cells; Endogenous protein of human HSCs; Detected in situ by PLA and pulled down from cell lysate with a TGFβRI antibody (Abcam ab31013); also called TGFβRI; TGFBR1
With B1, the binding result in test [1] and in test [2] was “binds” each time.
